# Assay results reported in patent US20230381229A1 (ALPINE IMMUNE SCIENCES, INC., published 2023).
# T1: TIGIT (human)
# T1 chain: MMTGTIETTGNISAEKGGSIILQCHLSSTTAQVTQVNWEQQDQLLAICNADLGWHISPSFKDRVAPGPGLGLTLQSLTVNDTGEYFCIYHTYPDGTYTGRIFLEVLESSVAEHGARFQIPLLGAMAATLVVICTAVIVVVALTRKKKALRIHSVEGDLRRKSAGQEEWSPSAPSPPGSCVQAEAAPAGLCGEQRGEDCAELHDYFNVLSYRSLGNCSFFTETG
# Molecular target: T1, TIGIT
# Test: cell-based or functional assay
row,"IL-2 luciferase reporter, Normalized Fold Change from CD155-ECD, proteins at 50 nM",Binder
1,0.4 fold,"variant CD155 IgV-Fc T15I, P18T, L79P, F91S, L104M, G111R (Fc fusion) WPPPGTGDVVVQAPIQVTGFLGDSVTLPCYLQVPNMEVTHVSQLTWARHGESGSMAVFHQTQGPSYSESKRLEFVAARPGAELRNASLRMSGLRVEDEGNYTCMFVTFPQRSRSVDIWLRVLGSGGGGSEPKSSDKTHTCPPCPAPEAEGAPSVFLFPPKPKDTLMISRTPEVTCVVVDVSHEDPEVKFNWYVDGVEVHNAKTKPREEQYNSTYRVVSVLTVLHQDWLNGKEYKCKVSNKALPAPIEKTISKAKGQPREPQVYTLPPSRDELTKNQVSLTCLVKGFYPSDIAVEWESNGQPENNYKTTPPVLDSDGSFFLYSKLTVDKSRWQQGNVFSCSVMHEALHNHYTQKSLSLSPGK"
2,2.4 fold,"variant CD155 IgV-Fc V9L, P18L, L79P, M90I, F91S, T102S, L104M, G111R (Fc fusion) WPPPGTGDLVVQAPTQVLGFLGDSVTLPCYLQVPNMEVTHVSQLTWARHGESGSMAVFHQTQGPSYSESKRLEFVAARPGAELRNASLRISGLRVEDEGNYSCMFVTFPQRSRSVDIWLRVLGSGGGGSEPKSSDKTHTCPPCPAPEAEGAPSVFLFPPKPKDTLMISRTPEVTCVVVDVSHEDPEVKFNWYVDGVEVHNAKTKPREEQYNSTYRVVSVLTVLHQDWLNGKEYKCKVSNKALPAPIEKTISKAKGQPREPQVYTLPPSRDELTKNQVSLTCLVKGFYPSDIAVEWESNGQPENNYKTTPPVLDSDGSFFLYSKLTVDKSRWQQGNVFSCSVMHEALHNHYTQKSLSLSPGK"
3,2.4 fold,"variant CD155 IgV-Fc P18L, K70E, L79P, F91S, V95A, G111R (Fc fusion) WPPPGTGDVVVQAPTQVLGFLGDSVTLPCYLQVPNMEVTHVSQLTWARHGESGSMAVFHQTQGPSYSESERLEFVAARPGAELRNASLRMSGLRAEDEGNYTCLFVTFPQRSRSVDIWLRVLGSGGGGSEPKSSDKTHTCPPCPAPEAEGAPSVFLFPPKPKDTLMISRTPEVTCVVVDVSHEDPEVKFNWYVDGVEVHNAKTKPREEQYNSTYRVVSVLTVLHQDWLNGKEYKCKVSNKALPAPIEKTISKAKGQPREPQVYTLPPSRDELTKNQVSLTCLVKGFYPSDIAVEWESNGQPENNYKTTPPVLDSDGSFFLYSKLTVDKSRWQQGNVFSCSVMHEALHNHYTQKSLSLSPGK"
4,8.6 fold,"variant CD155 IgV-Fc P18T, E37G, G53R, Q62K, L79P, F91S, E98D, L104M, T107M (Fc fusion) WPPPGTGDVVVQAPTQVTGFLGDSVTLPCYLQVPNMGVTHVSQLTWARHGESRSMAVFHQTKGPSYSESKRLEFVAARPGAELRNASLRMSGLRVEDDGNYTCMFVMFPQGSRSVDIWLRVLGSGGGGSEPKSSDKTHTCPPCPAPEAEGAPSVFLFPPKPKDTLMISRTPEVTCVVVDVSHEDPEVKFNWYVDGVEVHNAKTKPREEQYNSTYRVVSVLTVLHQDWLNGKEYKCKVSNKALPAPIEKTISKAKGQPREPQVYTLPPSRDELTKNQVSLTCLVKGFYPSDIAVEWESNGQPENNYKTTPPVLDSDGSFFLYSKLTVDKSRWQQGNVFSCSVMHEALHNHYTQKSLSLSPGK"
5,7.4 fold,"variant CD155 IgV-Fc V9L, P18T, Q62R, L79P, F91S, L104M, G111R (Fc fusion) WPPPGTGDLVVQAPTQVTGFLGDSVTLPCYLQVPNMEVTHVSQLTWARHGESGSMAVFHQTRGPSYSESKRLEFVAARPGAELRNASLRMSGLRVEDEGNYTCMFVTFPQRSRSVDIWLRVLGSGGGGSEPKSSDKTHTCPPCPAPEAEGAPSVFLFPPKPKDTLMISRTPEVTCVVVDVSHEDPEVKFNWYVDGVEVHNAKTKPREEQYNSTYRVVSVLTVLHQDWLNGKEYKCKVSNKALPAPIEKTISKAKGQPREPQVYTLPPSRDELTKNQVSLTCLVKGFYPSDIAVEWESNGQPENNYKTTPPVLDSDGSFFLYSKLTVDKSRWQQGNVFSCSVMHEALHNHYTQKSLSLSPGK"
6,1.6 fold,"variant CD155 IgV-Fc P18C, T26M, L44V, M55I, Q62K, L79P, F91S, L104M, T107M (Fc fusion) WPPPGTGDVVVQAPTQVCGFLGDSVMLPCYLQVPNMEVTHVSQVTWARHGESGSIAVFHQTKGPSYSESKRLEFVAARPGAELRNASLRMSGLRVEDEGNYTCMFVMFPQGSRSVDIWLRVLGSGGGGSEPKSSDKTHTCPPCPAPEAEGAPSVFLFPPKPKDTLMISRTPEVTCVVVDVSHEDPEVKFNWYVDGVEVHNAKTKPREEQYNSTYRVVSVLTVLHQDWLNGKEYKCKVSNKALPAPIEKTISKAKGQPREPQVYTLPPSRDELTKNQVSLTCLVKGFYPSDIAVEWESNGQPENNYKTTPPVLDSDGSFFLYSKLTVDKSRWQQGNVFSCSVMHEALHNHYTQKSLSLSPGK"
7,2.3 fold,"variant CD155 IgV-Fc V9I, Q12K, P18F, S65A, S67V, L79P, L104T, G111R, S112I (Fc fusion) WPPPGTGDIVVKAPTQVFGFLGDSVTLPCYLQVPNMEVTHVSQLTWARHGESGSMAVFHQTQGPAYVESKRLEFVAARPGAELRNASLRMFGLRVEDEGNYTCTFVTFPQRIRSVDIWLRVLGSGGGGSEPKSSDKTHTCPPCPAPEAEGAPSVFLFPPKPKDTLMISRTPEVTCVVVDVSHEDPEVKFNWYVDGVEVHNAKTKPREEQYNSTYRVVSVLTVLHQDWLNGKEYKCKVSNKALPAPIEKTISKAKGQPREPQVYTLPPSRDELTKNQVSLTCLVKGFYPSDIAVEWESNGQPENNYKTTPPVLDSDGSFFLYSKLTVDKSRWQQGNVFSCSVMHEALHNHYTQKSLSLSPGK"
8,0.6 fold,"variant CD155 IgV-Fc P18F, S65A, S67V, F91S, L104M, G111R (Fc fusion) WPPPGTGDVVVQAPTQVFGFLGDSVTLPCYLQVPNMEVTHVSQLTWARHGESGSMAVFHQTQGPAYVESKRLEFVAARLGAELRNASLRMSGLRVEDEGNYTCMFVTFPQRSRSVDIWLRVLGSGGGGSEPKSSDKTHTCPPCPAPEAEGAPSVFLFPPKPKDTLMISRTPEVTCVVVDVSHEDPEVKFNWYVDGVEVHNAKTKPREEQYNSTYRVVSVLTVLHQDWLNGKEYKCKVSNKALPAPIEKTISKAKGQPREPQVYTLPPSRDELTKNQVSLTCLVKGFYPSDIAVEWESNGQPENNYKTTPPVLDSDGSFFLYSKLTVDKSRWQQGNVFSCSVMHEALHNHYTQKSLSLSPGK"
9,-1.9 fold,"variant CD155 IgV-Fc V9I, V10I, P18S, F20S, T45A, L79P, F91S, L104M, F108Y, G111R, S112V (Fc fusion) WPPPGTGDIIVQAPTQVSGSLGDSVTLPCYLQVPNMEVTHVSQLAWARHGESGSMAVFHQTQGPSYSESKRLEFVAARPGAELRNASLRMSGLRVEDEGNYTCMFVTYPQRVRSVDIWLRVLGSGGGGSEPKSSDKTHTCPPCPAPEAEGAPSVFLFPPKPKDTLMISRTPEVTCVVVDVSHEDPEVKFNWYVDGVEVHNAKTKPREEQYNSTYRVVSVLTVLHQDWLNGKEYKCKVSNKALPAPIEKTISKAKGQPREPQVYTLPPSRDELTKNQVSLTCLVKGFYPSDIAVEWESNGQPENNYKTTPPVLDSDGSFFLYSKLTVDKSRWQQGNVFSCSVMHEALHNHYTQKSLSLSPGK"
10,4 fold,"variant CD155 IgV-Fc P18F, T26M, L44V, Q62K, L79P, E82D, F91S, L104M, G111D (Fc fusion) WPPPGTGDVVVQAPTQVFGFLGDSVMLPCYLQVPNMEVTHVSQVTWARHGESGSMAVFHQTKGPSYSESKRLEFVAARPGADLRNASLRMSGLRVEDEGNYTCMFVTFPQDSRSVDIWLRVLGSGGGGSEPKSSDKTHTCPPCPAPEAEGAPSVFLFPPKPKDTLMISRTPEVTCVVVDVSHEDPEVKFNWYVDGVEVHNAKTKPREEQYNSTYRVVSVLTVLHQDWLNGKEYKCKVSNKALPAPIEKTISKAKGQPREPQVYTLPPSRDELTKNQVSLTCLVKGFYPSDIAVEWESNGQPENNYKTTPPVLDSDGSFFLYSKLTVDKSRWQQGNVFSCSVMHEALHNHYTQKSLSLSPGK"
11,2 fold,"variant CD155 IgV-Fc V9I, P18T, D23G, L79P, F91S, G111R (Fc fusion) WPPPGTGDIVVQAPTQVTGFLGGSVTLPCYLQVPNMEVTHVSQLTWARHGESGSMAVFHQTQGPSYSESKRLEFVAARPGAELRNASLRMSGLRVEDEGNYTCLFVTFPQRSRSVDIWLRVLGSGGGGSEPKSSDKTHTCPPCPAPEAEGAPSVFLFPPKPKDTLMISRTPEVTCVVVDVSHEDPEVKFNWYVDGVEVHNAKTKPREEQYNSTYRVVSVLTVLHQDWLNGKEYKCKVSNKALPAPIEKTISKAKGQPREPQVYTLPPSRDELTKNQVSLTCLVKGFYPSDIAVEWESNGQPENNYKTTPPVLDSDGSFFLYSKLTVDKSRWQQGNVFSCSVMHEALHNHYTQKSLSLSPGK"
12,-0.9 fold,"variant CD155 IgV-Fc P18T, M36T, S65A, S67E, L79Q, A81T, F91S, G111R (Fc fusion) WPPPGTGDVVVQAPTQVTGFLGDSVTLPCYLQVPNTEVTHVSQLTWARHGESGSMAVFHQTQGPAYEESKRLEFVAARQGTELRNASLRMSGLRVEDEGNYTCLFVTFPQRSRSVDIWLRVLGSGGGGSEPKSSDKTHTCPPCPAPEAEGAPSVFLFPPKPKDTLMISRTPEVTCVVVDVSHEDPEVKFNWYVDGVEVHNAKTKPREEQYNSTYRVVSVLTVLHQDWLNGKEYKCKVSNKALPAPIEKTISKAKGQPREPQVYTLPPSRDELTKNQVSLTCLVKGFYPSDIAVEWESNGQPENNYKTTPPVLDSDGSFFLYSKLTVDKSRWQQGNVFSCSVMHEALHNHYTQKSLSLSPGK"
13,4 fold,"variant CD155 IgV-Fc D8G, P18S, M36I, V38A, H49Q, A76E, F91S, L104M, T107A, R113W (Fc fusion) WPPPGTGGVVVQAPTQVSGFLGDSVTLPCYLQVPNIEATHVSQLTWARQGESGSMAVFHQTQGPSYSESKRLEFVEARLGAELRNASLRMSGLRVEDEGNYTCMFVAFPQGSWSVDIWLRVLGSGGGGSEPKSSDKTHTCPPCPAPEAEGAPSVFLFPPKPKDTLMISRTPEVTCVVVDVSHEDPEVKFNWYVDGVEVHNAKTKPREEQYNSTYRVVSVLTVLHQDWLNGKEYKCKVSNKALPAPIEKTISKAKGQPREPQVYTLPPSRDELTKNQVSLTCLVKGFYPSDIAVEWESNGQPENNYKTTPPVLDSDGSFFLYSKLTVDKSRWQQGNVFSCSVMHEALHNHYTQKSLSLSPGK"
14,-0.1 fold,"variant CD155 IgV-Fc P18S, S52P, S65A, S67V, L79P, F91S, L104M, T107S, R113W (Fc fusion) WPPPGTGDVVVQAPTQVSGFLGDSVTLPCYLQVPNMEVTHVSQLTWARHGEPGSMAVFHQTQGPAYVESKRLEFVAARPGAELRNASLRMSGLRVEDEGNYTCMFVSFPQGSWSVDIWLRVLGSGGGGSEPKSSDKTHTCPPCPAPEAEGAPSVFLFPPKPKDTLMISRTPEVTCVVVDVSHEDPEVKFNWYVDGVEVHNAKTKPREEQYNSTYRVVSVLTVLHQDWLNGKEYKCKVSNKALPAPIEKTISKAKGQPREPQVYTLPPSRDELTKNQVSLTCLVKGFYPSDIAVEWESNGQPENNYKTTPPVLDSDGSFFLYSKLTVDKSRWQQGNVFSCSVMHEALHNHYTQKSLSLSPGK"
